± gives the uncertainty stated by the source.
Test: self-splicing fitness, log relative to wild type (ln ratio); higher = more splicing; Tetrahymena group I intron in knt gene, E. coli kanamycin selection, DiMSum; sequences stand for … in CUCUCU…GGAGGGAAAAGUUAUCAGGCAUGCACCUGGUAGCUAGUCUUUAAACCAAUAGAUUGCAUCGGUUUAAAAGGCAAGACCGUCAAAUUGCGGGAAAGGGGUCAACAGCCGUUCAGUACCAAGUCUCAGGGGAAACUUUGAGAUGGCCUUGCAAAGGGUAUGGUAAUAAGCUGACGGACAUGGUCCUAACCACGCAGCCAAGUCCUAAGUCAACAGAUCUUCUGUUGAUAUGGAUGCAGUUCACAGACUAAAUGUCGGUCGGGGAAGAUGUAUUCUUCUCAUAAGAUAUAGUCGGACCUCUCCUUAAUGGGAGCUAGCGGAUGAAGUGAUGCAACACUGGAGCCGCUGGGAACUAAUUUGUAUGCGAAAGUAUAUUGAUUAGUUUUGGAGUACUCGUGGUCG
Procedure, shortened: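 Library with all eight P1ex-region intron nucleotides randomised, intron inside the knt kanamycin-resistance gene on pET-22b(+), in E. coli BL21(DE3). Cells grew overnight at 37°C or 30°C on LB agar with or without 25 μg/mL kanamycin (plus 100 μg/mL carbenicillin, 50 μM IPTG, 0.2% rhamnose), in six replicate transformations. Pooled colonies were amplicon-sequenced on Illumina HiSeq 2500. DiMSum fitness is the error-weighted combination of wild-type-normalised replicate fold changes, kanamycin versus none.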

ACCUAGCAAUAUUACGUGUA
self-splicing fitness (ln) (30 °C): -2.84 ± 0.099
self-splicing fitness (ln) (37 °C): -1.45 ± 0.075

CACUAGCAAUAUUACGCAUA
self-splicing fitness (ln) (30 °C): -2.75 ± 0.2
self-splicing fitness (ln) (37 °C): -2.83 ± 0.24

GUUGAGCAAUAUUACGCGUG
self-splicing fitness (ln) (30 °C): -3.36 ± 0.15
self-splicing fitness (ln) (37 °C): -2.66 ± 0.21

CUCAAGCAAUAUUACGUCAG
self-splicing fitness (ln) (30 °C): -1.5 ± 0.077
self-splicing fitness (ln) (37 °C): -0.908 ± 0.099

UGUUAGCAAUAUUACGUAUG
self-splicing fitness (ln) (30 °C): -0.871 ± 0.13
self-splicing fitness (ln) (37 °C): -0.234 ± 0.17

GGCCAGCAAUAUUACGACGA
self-splicing fitness (ln) (30 °C): -2.9 ± 0.16
self-splicing fitness (ln) (37 °C): -1.98 ± 0.12

AUCUAGCAAUAUUACGUAUA
self-splicing fitness (ln) (30 °C): -2.84 ± 0.33
self-splicing fitness (ln) (37 °C): -1.91 ± 0.3

CCUAAGCAAUAUUACGGCCU
self-splicing fitness (ln) (30 °C): -1.9 ± 0.16
self-splicing fitness (ln) (37 °C): -1.84 ± 0.37

AUGCAGCAAUAUUACGAGUC
self-splicing fitness (ln) (30 °C): -3.73 ± 0.25
self-splicing fitness (ln) (37 °C): -2.32 ± 0.22

ACGUAGCAAUAUUACGCGCG
self-splicing fitness (ln) (30 °C): -1.28 ± 0.15
self-splicing fitness (ln) (37 °C): -0.103 ± 0.18

UAGCAGCAAUAUUACGAGGU
self-splicing fitness (ln) (30 °C): -3.43 ± 0.15
self-splicing fitness (ln) (37 °C): -1.7 ± 0.13

UAUGAGCAAUAUUACGAGAC
self-splicing fitness (ln) (30 °C): -2.85 ± 0.39
self-splicing fitness (ln) (37 °C): -2.4 ± 0.32

GUUUAGCAAUAUUACGACUC
self-splicing fitness (ln) (30 °C): 0.0633 ± 0.12
self-splicing fitness (ln) (37 °C): 0.248 ± 0.15

UUGCAGCAAUAUUACGUUGU
self-splicing fitness (ln) (30 °C): -3.23 ± 0.2
self-splicing fitness (ln) (37 °C): -2.81 ± 0.2

CAGCAGCAAUAUUACGCCCG
self-splicing fitness (ln) (30 °C): 0.0522 ± 0.12
self-splicing fitness (ln) (37 °C): 0.33 ± 0.12

AUAAAGCAAUAUUACGAUGA
self-splicing fitness (ln) (30 °C): -0.326 ± 0.083
self-splicing fitness (ln) (37 °C): 0.153 ± 0.12

AUUCAGCAAUAUUACGCAAA
self-splicing fitness (ln) (30 °C): -1.04 ± 0.14
self-splicing fitness (ln) (37 °C): -0.821 ± 0.16

GCGAAGCAAUAUUACGUAAA
self-splicing fitness (ln) (30 °C): -1.85 ± 0.16
self-splicing fitness (ln) (37 °C): -2.12 ± 0.23

GGGAAGCAAUAUUACGUAAG
self-splicing fitness (ln) (30 °C): -1.09 ± 0.086
self-splicing fitness (ln) (37 °C): -1.14 ± 0.13

CUGAAGCAAUAUUACGUUCC
self-splicing fitness (ln) (37 °C): -2.57 ± 0.3

AAAUAGCAAUAUUACGCCUG
self-splicing fitness (ln) (30 °C): -0.3 ± 0.08
self-splicing fitness (ln) (37 °C): -1.03 ± 0.1

GAUAAGCAAUAUUACGUGAG
self-splicing fitness (ln) (30 °C): -2.14 ± 0.096
self-splicing fitness (ln) (37 °C): -0.113 ± 0.099

AUAAAGCAAUAUUACGACUU
self-splicing fitness (ln) (30 °C): 0.0576 ± 0.088
self-splicing fitness (ln) (37 °C): 0.686 ± 0.13

AAAUAGCAAUAUUACGGGAG
self-splicing fitness (ln) (30 °C): -2.29 ± 0.14
self-splicing fitness (ln) (37 °C): -1.84 ± 0.19

UAUGAGCAAUAUUACGAUAG
self-splicing fitness (ln) (30 °C): -2.31 ± 0.35
self-splicing fitness (ln) (37 °C): -0.767 ± 0.38

GUAGAGCAAUAUUACGACAA
self-splicing fitness (ln) (30 °C): 0.152 ± 0.14
self-splicing fitness (ln) (37 °C): -0.0812 ± 0.17

UAUGAGCAAUAUUACGGCAC
self-splicing fitness (ln) (30 °C): -2.09 ± 0.28

CCGCAGCAAUAUUACGUACA
self-splicing fitness (ln) (30 °C): -2.89 ± 0.16
self-splicing fitness (ln) (37 °C): -2.4 ± 0.23

CCAUAGCAAUAUUACGAGCA
self-splicing fitness (ln) (30 °C): -3.11 ± 0.2
self-splicing fitness (ln) (37 °C): -2.11 ± 0.23

GAAAAGCAAUAUUACGGUGC
self-splicing fitness (ln) (30 °C): -2.02 ± 0.12
self-splicing fitness (ln) (37 °C): -2.05 ± 0.18

AUGAAGCAAUAUUACGUCAA
self-splicing fitness (ln) (30 °C): -0.911 ± 0.064
self-splicing fitness (ln) (37 °C): -0.148 ± 0.076

GAGCAGCAAUAUUACGGCUA
self-splicing fitness (ln) (30 °C): -0.634 ± 0.1
self-splicing fitness (ln) (37 °C): -0.0591 ± 0.15

UACGAGCAAUAUUACGCCUG
self-splicing fitness (ln) (30 °C): -1.65 ± 0.1
self-splicing fitness (ln) (37 °C): -0.887 ± 0.14

CCGUAGCAAUAUUACGGUCG
self-splicing fitness (ln) (30 °C): -0.844 ± 0.074
self-splicing fitness (ln) (37 °C): -0.447 ± 0.095

UCGGAGCAAUAUUACGAUAC
self-splicing fitness (ln) (30 °C): -3.5 ± 0.35
self-splicing fitness (ln) (37 °C): -0.757 ± 0.33

UGCGAGCAAUAUUACGACCA
self-splicing fitness (ln) (30 °C): -0.371 ± 0.18

UCAAAGCAAUAUUACGAGUU
self-splicing fitness (ln) (30 °C): -4.25 ± 0.31
self-splicing fitness (ln) (37 °C): -2.28 ± 0.19

AUGGAGCAAUAUUACGACUU
self-splicing fitness (ln) (30 °C): -1.73 ± 0.1
self-splicing fitness (ln) (37 °C): -1.08 ± 0.13

UAGAAGCAAUAUUACGUCGG
self-splicing fitness (ln) (30 °C): -0.813 ± 0.073
self-splicing fitness (ln) (37 °C): -0.306 ± 0.091

AAUUAGCAAUAUUACGGGGA
self-splicing fitness (ln) (30 °C): -2.98 ± 0.27
self-splicing fitness (ln) (37 °C): -2.07 ± 0.26

GUCCAGCAAUAUUACGUGAC
self-splicing fitness (ln) (30 °C): -1.23 ± 0.13
self-splicing fitness (ln) (37 °C): -1.93 ± 0.16

GGUUAGCAAUAUUACGAAGC
self-splicing fitness (ln) (30 °C): -0.991 ± 0.17
self-splicing fitness (ln) (37 °C): -1.24 ± 0.18

GCGCAGCAAUAUUACGCUCU
self-splicing fitness (ln) (30 °C): -3.21 ± 0.28
self-splicing fitness (ln) (37 °C): -1.29 ± 0.23

UCUCAGCAAUAUUACGUUGG
self-splicing fitness (ln) (30 °C): -3.58 ± 0.14
self-splicing fitness (ln) (37 °C): -3.73 ± 0.23

UUAUAGCAAUAUUACGGUUA
self-splicing fitness (ln) (30 °C): -0.941 ± 0.08
self-splicing fitness (ln) (37 °C): -0.0464 ± 0.084

UAGGAGCAAUAUUACGUUAA
self-splicing fitness (ln) (30 °C): -1.4 ± 0.28
self-splicing fitness (ln) (37 °C): -2.55 ± 0.39

UUCAAGCAAUAUUACGUAGG
self-splicing fitness (ln) (30 °C): -1.53 ± 0.08
self-splicing fitness (ln) (37 °C): -0.995 ± 0.13

UAGAAGCAAUAUUACGGGCA
self-splicing fitness (ln) (30 °C): -1.17 ± 0.16
self-splicing fitness (ln) (37 °C): -0.144 ± 0.12

CUAUAGCAAUAUUACGGUGU
self-splicing fitness (ln) (30 °C): -4.24 ± 0.27
self-splicing fitness (ln) (37 °C): -1.93 ± 0.22

AAUUAGCAAUAUUACGCCUU
self-splicing fitness (ln) (30 °C): -0.243 ± 0.11
self-splicing fitness (ln) (37 °C): -0.0919 ± 0.12

UGUGAGCAAUAUUACGAAAG
self-splicing fitness (ln) (30 °C): -2.98 ± 0.18
self-splicing fitness (ln) (37 °C): -2.69 ± 0.27

GGAAAGCAAUAUUACGGCCA
self-splicing fitness (ln) (30 °C): -0.368 ± 0.081
self-splicing fitness (ln) (37 °C): -0.0522 ± 0.1

CCUAAGCAAUAUUACGUCUU
self-splicing fitness (ln) (30 °C): -3.47 ± 0.18
self-splicing fitness (ln) (37 °C): -2.42 ± 0.22

UACCAGCAAUAUUACGCAGG
self-splicing fitness (ln) (30 °C): -3.68 ± 0.21
self-splicing fitness (ln) (37 °C): -2.37 ± 0.27

AAGGAGCAAUAUUACGCUUA
self-splicing fitness (ln) (30 °C): -1.49 ± 0.17
self-splicing fitness (ln) (37 °C): -1.1 ± 0.16

UGGCAGCAAUAUUACGACCG
self-splicing fitness (ln) (30 °C): -0.969 ± 0.27
self-splicing fitness (ln) (37 °C): -0.245 ± 0.42

CGAUAGCAAUAUUACGCGGA
self-splicing fitness (ln) (30 °C): -2.21 ± 0.22
self-splicing fitness (ln) (37 °C): -0.662 ± 0.15

AUUAAGCAAUAUUACGAACG
self-splicing fitness (ln) (30 °C): -1.59 ± 0.18
self-splicing fitness (ln) (37 °C): -0.243 ± 0.15

CCCUAGCAAUAUUACGCGAC
self-splicing fitness (ln) (30 °C): -4.32 ± 0.36
self-splicing fitness (ln) (37 °C): -2.67 ± 0.33

UUAGAGCAAUAUUACGUGCA
self-splicing fitness (ln) (30 °C): -2.16 ± 0.15
self-splicing fitness (ln) (37 °C): -0.652 ± 0.16
